Experimental findings from US20230034474A1 (AC IMMUNE, published 2023) are described below.

Assay [1] concerns the target T1, full-length sAPPalpha fragment (UniProt P05067-4 18-612, limits assumed).
T1 construct: domain: sAPPalpha; Bought protein; also called soluble APP alpha; soluble amyloid precursor protein alpha
The assay is described as follows: indirect ELISA, sAPPalpha coated.
Procedure: (§1) Antibody target binding was evaluated by an enzyme-linked immunosorbent assay (ELISA). Briefly, Nunc MaxiSorp 96-well plates (Nunc) were coated for 18 h at 4° C. with 50 μL of 10 pg/mL Abeta1-42 or bovine serum albumin (BSA, Sigma) diluted in PBS. In selected assays, the full-length sAPPalpha fragment (Sigma) was additionally included by coating wells as described above, but at 4 pg/mL (0.04 μM). Plates were then washed 4-times with 300 μL of PBS containing 0.05% Tween20 (Millipore). To block non-specific binding to the plate, freshly prepared solution of PBS containing 0.05% Tween20 and 1% BSA, was added to each well (100 μL/well) and the plates were incubated for 1 h at 37° C. Primary antibodies were diluted to 100 nM in PBS containing 1% BSA and 0.05% Tween20, followed by 3-fold serial dilutions in duplicates. Solutions were added to plates at 50 μL/well and incubated for 1 h at 37° C. Subsequently, the plates were washed 4-times with 300 μL of PBS containing 0.05% Tween20. Plates were then incubated with horseradish peroxidase (HRP) conjugated goat anti-mouse secondary IgG (Abcam) for 1 h at 37° C. After final wash step (4-times with 300 μL of PBS containing 0.05% Tween20), plates were incubated with 3,3′,5,5′-tetramethylbenzidine (TMB) substrate (BD Biosciences) and reaction stopped with a Stop Solution (Sigma). Finally, optical densities (O.D.) were read at 450 nm absorption wavelength using a Tecan Infinite plate reader. Measured values are expressed as mean O.D. from a duplicate run ±1 standard deviation of the mean (S.D.).

Assay [2] has as its target T2, Abeta1-42 (human).
T2 construct: coated on plates in the direct ELISA, in solution as analyte in the sandwich ELISA; also called human Abeta 1-42; amyloid-beta 1-42
Briefly: indirect ELISA, plate coated with Abeta1-42, antibody titrated, anti-mouse IgG-HRP, O.D. 450 nm. A general note: An ELISA detects its analyte on a solid surface through an enzyme-linked reagent.
Procedure: (§2) Antibody target binding was evaluated by an enzyme-linked immunosorbent assay (ELISA). Briefly, Nunc MaxiSorp 96-well plates (Nunc) were coated for 18 h at 4° C. with 50 μL of 10 pg/mL Abeta1-42 or bovine serum albumin (BSA, Sigma) diluted in PBS. In selected assays, the full-length sAPPalpha fragment (Sigma) was additionally included by coating wells as described above, but at 4 pg/mL (0.04 μM). Plates were then washed 4-times with 300 μL of PBS containing 0.05% Tween20 (Millipore). To block non-specific binding to the plate, freshly prepared solution of PBS containing 0.05% Tween20 and 1% BSA, was added to each well (100 μL/well) and the plates were incubated for 1 h at 37° C. Primary antibodies were diluted to 100 nM in PBS containing 1% BSA and 0.05% Tween20, followed by 3-fold serial dilutions in duplicates. Solutions were added to plates at 50 μL/well and incubated for 1 h at 37° C. Subsequently, the plates were washed 4-times with 300 μL of PBS containing 0.05% Tween20. Plates were then incubated with horseradish peroxidase (HRP) conjugated goat anti-mouse secondary IgG (Abcam) for 1 h at 37° C. […] Finally, optical densities (O.D.) were read at 450 nm absorption wavelength using a Tecan Infinite plate reader. Measured values are expressed as mean O.D. from a duplicate run ±1 standard deviation of the mean (S.D.).

Assay [3] has as its target T3, Human Abeta1-42 biotinylated at the peptide C-terminus (human, biotin at the peptide C-terminus).
T3 construct: also called biotinylated Abeta1-42
Briefly: target capture ELISA.
Procedure: Briefly, a Nunc MaxiSorp 96-well plate (Nunc) was coated for 18 h at 4° C. with 50 μL of 5 pg/mL goat anti-mouse IgG, Fc-gamma fragment specific antibody (Jackson Immune Research) diluted in carbonate-bicarbonate buffer. The plate was then washed 4-times with 300 μL of PBS containing 0.05% Tween20 (Millipore). To block non-specific binding to the plate, freshly prepared solution of PBS containing 0.05% Tween20 and 1% BSA, was added to each well (100 μL/well) and the plate was incubated for 1 h at 37° C. […] Subsequently, the plate was washed 4-times with 300 μL of PBS containing 0.05% Tween20. […] After washing 4-times with 300 μL of PBS containing 0.05% Tween20, the plate was incubated for 45 min at ambient temperature with 50 μL/well of streptavidin-HRP (R&D systems) diluted 1:200 in PBS containing 1% BSA and 0.05% Tween20. The plate was again washed 4-times with 300 μL of PBS containing 0.05% Tween20 before incubating at ambient temperature for 20 or 30 min with 50 or 100 μL/well of 3,3′,5,5′-tetramethylbenzidine (TMB) enzyme substrate (BD Bioscience). Reaction was stopped with a 1.2 M HCl (Sigma) solution. Finally, optical densities (O.D.) were read at 450 nm absorption wavelength using a Tecan Infinite plate reader.

Assay [4] has as its target T2, Abeta1-42. The assay is described as follows: indirect ELISA, Abeta1-42 coated, antibody titrated.
Procedure: as §1
The target of assay [5] is T4, bovine serum albumin (bovine, UniProt P02769 25-607).
T4 construct: Negative control antigen; also called BSA
Briefly: indirect ELISA, plate coated with BSA, antibody titrated, anti-mouse IgG-HRP, O.D. 450 nm.
Procedure: as §2

T1 sequence (P05067 other isoform, or with tags, fused parts or gaps limits assumed): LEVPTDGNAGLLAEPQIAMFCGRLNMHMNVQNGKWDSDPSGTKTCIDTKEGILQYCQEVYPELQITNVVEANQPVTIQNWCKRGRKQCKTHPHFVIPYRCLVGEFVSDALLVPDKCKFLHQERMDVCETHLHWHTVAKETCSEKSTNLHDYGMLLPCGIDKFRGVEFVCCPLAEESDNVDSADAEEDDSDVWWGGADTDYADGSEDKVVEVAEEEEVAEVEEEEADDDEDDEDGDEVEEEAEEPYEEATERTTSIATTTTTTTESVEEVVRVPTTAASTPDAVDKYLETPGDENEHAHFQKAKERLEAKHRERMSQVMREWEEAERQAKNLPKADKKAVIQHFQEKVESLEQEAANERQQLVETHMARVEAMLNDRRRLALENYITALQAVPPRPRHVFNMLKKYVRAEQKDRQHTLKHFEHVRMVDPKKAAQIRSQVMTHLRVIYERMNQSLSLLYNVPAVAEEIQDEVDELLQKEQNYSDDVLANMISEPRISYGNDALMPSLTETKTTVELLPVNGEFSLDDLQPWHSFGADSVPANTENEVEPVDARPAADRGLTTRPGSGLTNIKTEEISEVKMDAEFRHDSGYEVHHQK

B1: ACI-31-30C11-Ab1 (murine IgG2a with a kappa light chain) (antibody, V domains shown)
VH: QVQLQQSGPELVKPGASVKISCKASGYAFSSSWLNWVKQRPGEGLEWIGRIYPGDGDINYNGKFKGKATLTADKSSSTAYMQLSSLTSDDSAVYFCTKRGRYALDYWGQGTSVTVSS
VL: DIVLTQSPASLAVSLGQRATISCRASKSVDNYGKSFMHWFQQKPGQPPKLLIYRASNLESGIPARFSGSGSRTDFTLTINPVEADDVATYYCQQSNEDPYTFGGGTKLEMKR
notes: also called AC-31-30C11-Ab1
As usually defined, the EC50 (read off the curve) is the concentration giving half of the maximal effect. One may read the Kd as a measure of binding affinity in units of concentration. Read a high Kd as lower affinity. Take B1: the results for the binding result in assay [1], in assay [3] and in assay [5] were “no binding”, “binds” and “no binding (tested: 100 nM)”, respectively. The concentration for a half-maximal effect (EC50 (read off the curve)) in assay [2] was roughly 200 pM. Further, the Kd in assay [4] turned out to be 196 pM.
